Experimental findings from patent US20210179728A1 are described below.

Experiment [1] has as its target SIRPa on human monocytes (human) (UniProt P78324). In words: flow cytometry on human monocytes v1/v1, PE anti-human Fc; MFI [B, panel B table].
Experiment [2] has the same target. In words: flow cytometry on human monocytes v1/v1, PE anti-human Fc; percent of stained monocytes [B, panel A table]. (In general: A flow cytometer gives signals particle by particle.)

B1: HALA (antibody, human IgG4 S228P, kappa, V domains shown)
VH: EVQLVQSGAEVKKPGESLRISCKASGYTFTSYWVHWVRQMPGKGLEWIGNIDPSDSDTHYNQKFKDHVTLSVDKSISTAYLQLSSLKASDTAMYYCVRGGTGTMAWFAYWGQGTLVTVSS
VL: DVVMTQSPLSLPVTLGQPASISCRSSQSLVHSYGNTYLYWYQQRPGQSPRLLIYRVSNRFSGVPDRFSGSGSGTDFTLKISRVEAEDVGVYFCFQGTHVPYTFGGGTKVEIKR
As usually defined, the EC50 is the midpoint of the concentration-response curve. Higher therefore signals a less potent agent. As to B1, the EC50 in experiment [1] came out at 0.59 µg/mL; in experiment [2] it was 0.242 µg/mL.
